US20110177504A1

Biological target: murine LY6C polypeptide on YAMC cells (murine) (UniProt P0CW02)
Assay: cell-based or functional assay

Chain of UniProt P0CW02 (P0CW02 27-109 limits assumed): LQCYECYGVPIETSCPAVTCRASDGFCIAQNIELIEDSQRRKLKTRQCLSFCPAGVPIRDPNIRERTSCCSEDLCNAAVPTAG

Anti-LY6C (clone HK1.4), Southern Biotech (antibody)
CCL2 mRNA, quantitative RT-PCR, YAMC cells on plate-bound antibody 24 h, IFN pre-treatment: 16.1 fold change
CCL2 mRNA, quantitative RT-PCR, YAMC cells on plate-bound antibody 24 h, Media pre-treatment: 8.81 fold change
CCL4 mRNA, quantitative RT-PCR, YAMC cells on plate-bound antibody 24 h, IFN pre-treatment: 16.1 fold change
CCL4 mRNA, quantitative RT-PCR, YAMC cells on plate-bound antibody 24 h, Media pre-treatment: 3.15 fold change
CCL5 mRNA, quantitative RT-PCR, YAMC cells on plate-bound antibody 24 h, IFN pre-treatment: 10.1 fold change
CCL5 mRNA, quantitative RT-PCR, YAMC cells on plate-bound antibody 24 h, Media pre-treatment: 3.31 fold change
CCL7 mRNA, quantitative RT-PCR, YAMC cells on plate-bound antibody 24 h, IFN pre-treatment: 5.81 fold change
CCL7 mRNA, quantitative RT-PCR, YAMC cells on plate-bound antibody 24 h, Media pre-treatment: 3.37 fold change
CCL8 mRNA, quantitative RT-PCR, YAMC cells on plate-bound antibody 24 h, IFN pre-treatment: 110 fold change
CCL8 mRNA, quantitative RT-PCR, YAMC cells on plate-bound antibody 24 h, Media pre-treatment: 12.8 fold change
CCL25 mRNA, quantitative RT-PCR, YAMC cells on plate-bound antibody 24 h, IFN pre-treatment: 1.46 fold change
CCL25 mRNA, quantitative RT-PCR, YAMC cells on plate-bound antibody 24 h, Media pre-treatment: 1.16 fold change
CXCL1 mRNA, quantitative RT-PCR, YAMC cells on plate-bound antibody 24 h, IFN pre-treatment: 13.4 fold change
CXCL1 mRNA, quantitative RT-PCR, YAMC cells on plate-bound antibody 24 h, Media pre-treatment: 11.6 fold change
CXCL2 mRNA, quantitative RT-PCR, YAMC cells on plate-bound antibody 24 h, IFN pre-treatment: 113 fold change
CXCL2 mRNA, quantitative RT-PCR, YAMC cells on plate-bound antibody 24 h, Media pre-treatment: 21.8 fold change
CXCL5 mRNA, quantitative RT-PCR, YAMC cells on plate-bound antibody 24 h, IFN pre-treatment: 151 fold change
CXCL5 mRNA, quantitative RT-PCR, YAMC cells on plate-bound antibody 24 h, Media pre-treatment: 118 fold change
CXCL10 mRNA, quantitative RT-PCR, YAMC cells on plate-bound antibody 24 h, IFN pre-treatment: 12.2 fold change
CXCL10 mRNA, quantitative RT-PCR, YAMC cells on plate-bound antibody 24 h, Media pre-treatment: 5.11 fold change
CXCL12 mRNA, quantitative RT-PCR, YAMC cells on plate-bound antibody 24 h, IFN pre-treatment: -3.02 fold change
CXCL12 mRNA, quantitative RT-PCR, YAMC cells on plate-bound antibody 24 h, Media pre-treatment: -1.99 fold change
lowest coating concentration of antibody giving detectable CXCL5 secretion, ELISA: 1 µg/mL
